Data from paper PMC4310740.

Experiments:
[1] = target: G-actin (rabbit muscle actin monomers) (rabbit) (UniProt P68135); test: fluorescence polarisation
[2] = target: Alexa 594-labeled N-WASP VCA (S430C) (UniProt O00401); test: fluorescence polarisation
Chain of Alexa 594-labeled N-WASP VCA (S430C) (O00401 whole entry S430C): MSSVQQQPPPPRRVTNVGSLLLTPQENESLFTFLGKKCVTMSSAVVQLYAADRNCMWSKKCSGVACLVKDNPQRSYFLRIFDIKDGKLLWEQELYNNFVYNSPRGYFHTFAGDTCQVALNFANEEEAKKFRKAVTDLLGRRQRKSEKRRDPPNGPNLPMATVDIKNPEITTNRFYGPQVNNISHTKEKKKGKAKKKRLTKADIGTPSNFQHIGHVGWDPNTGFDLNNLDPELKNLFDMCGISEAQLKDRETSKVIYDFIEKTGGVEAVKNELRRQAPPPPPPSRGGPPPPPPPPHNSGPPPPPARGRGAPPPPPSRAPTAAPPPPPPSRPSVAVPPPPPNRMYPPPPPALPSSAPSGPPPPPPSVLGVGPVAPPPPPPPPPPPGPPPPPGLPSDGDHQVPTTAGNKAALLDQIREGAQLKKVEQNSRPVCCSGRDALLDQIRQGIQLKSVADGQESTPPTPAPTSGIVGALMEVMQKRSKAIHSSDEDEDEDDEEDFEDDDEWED

“human WAVE1 GST-VCA K507Q (from UniProt Q92558 1-559) (domain or fragment)” gave a fold reduction of affinity against wild-type WAVE1 GST-VCA [1] of less than 2 fold.

Substance “G-actin (rabbit muscle actin monomers) (from UniProt P68135 1-377) (natural protein)” has a Kd [2] of 106 nM.
